Data published in US20230227559A1 (INSTITUT PASTEUR, published 2023).
Numbering of substitutions follows the chain as printed. Names and notes keep the numbering of the source.

B1: Chimeric 3G4 hIgG1 (chimeric mouse-human IgG1 kappa anti-hFcγRIII mAb, clone 3G4) (antibody)
heavy: not shown
light: DIVLTQSPSSISASLGDRITITCQATQDIIKNLNWYQQKPGKPPSFLIYYATEVAEGVPSRFSGSGSGSDYSLTISNLESEDFADYYCLQFYEFPYTFGGGTKLEIKRTVAAPSVFIFPPSDEQLKSGTASVVCLLNNFYPREAKVQWKVDNALQSGNSQESVTEQDSKDSTYSLSSTLTLSKADYEKHKVYACEVTHQGLSSPVTKSFNRGEC
notes: also called mouse-human 3G4; 3G4 mouse-human chimeric monoclonal antibody
B2: Chimeric 3G4 hIgG1 N297A format (chimeric modified mouse-human antibody 3G4NA) (antibody)
heavy: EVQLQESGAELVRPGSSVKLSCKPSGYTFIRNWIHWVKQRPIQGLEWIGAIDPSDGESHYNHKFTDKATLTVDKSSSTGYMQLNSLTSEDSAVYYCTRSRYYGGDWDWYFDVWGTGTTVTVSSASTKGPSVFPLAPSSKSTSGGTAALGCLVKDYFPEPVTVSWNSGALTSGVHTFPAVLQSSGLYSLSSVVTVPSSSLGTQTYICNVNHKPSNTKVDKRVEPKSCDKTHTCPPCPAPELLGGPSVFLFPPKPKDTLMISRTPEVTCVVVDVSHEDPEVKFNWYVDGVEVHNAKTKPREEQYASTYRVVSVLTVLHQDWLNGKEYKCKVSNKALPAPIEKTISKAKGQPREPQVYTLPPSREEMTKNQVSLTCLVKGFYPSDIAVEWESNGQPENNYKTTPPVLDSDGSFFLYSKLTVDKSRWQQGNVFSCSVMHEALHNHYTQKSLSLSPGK
light: B1 light
notes: also called 3G4N297A; mAb 3G4 N297A

Tests used:
[1] = target: T1, His-tagged ectodomains of hFcγRIIIA variant V158 (human, UniProt P08637 19-208); assay: SPR (ProteON), His-tagged hFcγRIIIA V158 ectodomains on chip, mAb injected
T1 construct: also called human CD16A V158 ectodomains; hFcγRIIIA (V158 variant); not shown: His tag
Experimental: Surface Plasmon Resonance analysis. His-tagged ectodomains of hFcγRIIIA variant V158 were covalently immobilized on a His-tag capture sensor chip for a ProteON instrument (BioRad). A range of dilutions of anti-hFcγRIII mAbs were injected onto the chip. Background binding was measured on an empty HTE sensor chip channel and subtracted from the binding values observed on coated channels. The resulting sensorgrams were fitted using a “1:1 binding with mass transfer” model, and association (Kₒₙ), dissociation (Koff) constants and KD were calculated as the […] using BIAevaluation 4.1 software.
The affinity of the antibodies of the invention for the hFcγRIIIA (V158 variant) has been assessed by SPR as detailed above.

[2] = target: T2, hFcγRI (FLAG tagged, expressed on CHO cells) (human, UniProt P12314 16-374); assay: FACS on CHO cells expressing FLAG tagged hFcγRI; mAb at 1 µg/ml, PE-labelled F(ab')2 donkey anti-human IgG at 5 µg/ml
T2 construct: whole, on cells; also called CD64
Experimental: (§1) Specificity. A collection of Chinese Hamster Ovarian (CHO) cells expressing FLAG tagged human FcγR (Bruhns P. et al, 2009) was used to analyze the specificity of the antibody against the hFcγR family. Cells were incubated on ice for 30 min with mAbs at 1 μg/ml, washed 3 time in PBS containing 0.5% BSA and 2 mM EDTA (MACS buffer) and then incubated on ice for 30 min with 5 μg/ml PE-labelled F(ab′)₂ Donkey Anti-Human IgG (Jackson ImmunoResearch). Data acquisition was performed on a MACSQuant flow cytometer (Miltenyi Biotec), and data analyzed using the Flowjo Software (FlowJo).
(§2) The specificity of the chimeric modified antibody 3G4NA towards the members of the hFcγR family has been assessed as exposed in the Material & Methods part, in CHO cells expressing FLAG tagged human FcγR. The cells were incubated with 3G4NA mAbs at 1 μg/ml, washed and then incubated on ice for 30 min with 5 μg/ml PE-labelled F(ab′)₂ Donkey Anti-Human IgG. The FACS results are disclosed on FIG. 1.

hFcgRIIB = target: T3, hFcgRIIB (human, UniProt P31994); assay: FACS on CHO cells expressing FLAG tagged hFcγRIIB; mAb at 1 µg/ml, PE-labelled F(ab')2 donkey anti-human IgG at 5 µg/ml
T3 construct: on the cell surface of CHO transfectants, FLAG tagged; Named only on the sheet; one member of the group m10; also called hFcγRIIB; CD32B
T3 sequence (receptor chain, looked up): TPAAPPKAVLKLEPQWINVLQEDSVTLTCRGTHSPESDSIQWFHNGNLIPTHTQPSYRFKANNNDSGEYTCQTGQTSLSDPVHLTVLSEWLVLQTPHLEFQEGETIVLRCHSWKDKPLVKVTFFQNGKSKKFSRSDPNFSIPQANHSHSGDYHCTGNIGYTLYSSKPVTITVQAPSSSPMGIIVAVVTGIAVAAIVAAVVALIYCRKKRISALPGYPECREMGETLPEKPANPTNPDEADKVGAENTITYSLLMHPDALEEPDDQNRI
Experimental: as §1, §2

hFcgRIIA H131 = target: T4, hFcgRIIA H131 (human, UniProt P12318); assay: FACS on CHO cells expressing FLAG tagged hFcγRIIA H131; mAb at 1 µg/ml, PE-labelled F(ab')2 donkey anti-human IgG at 5 µg/ml
T4 construct: on the cell surface of CHO transfectants, FLAG tagged; Named only on the sheet; one member of the group m10; also called hFcγRIIA H131; CD32A H131
T4 sequence (receptor chain, looked up): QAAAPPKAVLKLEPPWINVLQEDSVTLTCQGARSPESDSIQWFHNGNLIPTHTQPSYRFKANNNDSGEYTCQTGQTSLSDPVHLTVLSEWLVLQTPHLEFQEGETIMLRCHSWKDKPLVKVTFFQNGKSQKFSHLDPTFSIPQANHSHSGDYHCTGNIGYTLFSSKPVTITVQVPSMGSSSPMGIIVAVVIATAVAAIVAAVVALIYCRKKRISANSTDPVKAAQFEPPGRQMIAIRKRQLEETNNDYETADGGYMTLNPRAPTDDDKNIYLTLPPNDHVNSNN
Experimental: as §1, §2

hFcgRIIA R131 = target: T5, hFcgRIIA R131 (human, UniProt P12318); assay: FACS on CHO cells expressing FLAG tagged hFcγRIIA R131; mAb at 1 µg/ml, PE-labelled F(ab')2 donkey anti-human IgG at 5 µg/ml
T5 construct: on the cell surface of CHO transfectants, FLAG tagged; Named only on the sheet; one member of the group m10; also called hFcγRIIA R131; CD32A R131
T5 sequence (receptor chain, looked up): T4 sequence (receptor chain, looked up) with H134R
Experimental: as §1, §2

hFcgRIIIA F176 = target: T6, hFcgRIIIA F176 (human, UniProt P08637); assay: FACS on CHO cells expressing FLAG tagged hFcγRIIIA F176; mAb at 1 µg/ml, PE-labelled F(ab')2 donkey anti-human IgG at 5 µg/ml
T6 construct: on the cell surface of CHO transfectants, FLAG tagged; also called hFcγRIIIA F158; CD16A F158
Experimental: as §1, §2

[3] = target: T7, hFcγRIIIA V158 (FLAG tagged, expressed on CHO cells) (human, UniProt P08637 17-254); assay: FACS on CHO cells expressing FLAG tagged hFcγRIIIA V176 (V158 in the text); mAb at 1 µg/ml, PE-labelled F(ab')2 donkey anti-human IgG at 5 µg/ml
T7 construct: whole, on cells; also called CD16A V158
Experimental: as §1, §2

T1 sequence (P08637 other isoform, or with tags, fused parts or gaps mutant): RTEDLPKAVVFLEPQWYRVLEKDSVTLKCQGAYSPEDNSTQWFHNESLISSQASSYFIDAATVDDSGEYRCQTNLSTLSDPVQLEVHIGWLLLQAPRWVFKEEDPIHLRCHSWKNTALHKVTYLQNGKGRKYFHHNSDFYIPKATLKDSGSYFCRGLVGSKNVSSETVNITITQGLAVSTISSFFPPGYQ
T6 sequence (P08637 17-254 limits assumed): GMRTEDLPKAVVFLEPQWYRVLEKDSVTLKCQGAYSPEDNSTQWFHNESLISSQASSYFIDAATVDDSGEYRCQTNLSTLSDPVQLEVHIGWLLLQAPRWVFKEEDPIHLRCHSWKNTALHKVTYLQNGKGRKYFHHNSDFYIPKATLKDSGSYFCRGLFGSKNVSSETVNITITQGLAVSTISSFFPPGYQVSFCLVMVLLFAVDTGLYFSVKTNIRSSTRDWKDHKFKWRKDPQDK
T7 sequence (P08637 17-254 F176V limits assumed): as the sequence (P08637 17-254 limits assumed) above, with F160V counted along it
T2 sequence (P12314 16-374): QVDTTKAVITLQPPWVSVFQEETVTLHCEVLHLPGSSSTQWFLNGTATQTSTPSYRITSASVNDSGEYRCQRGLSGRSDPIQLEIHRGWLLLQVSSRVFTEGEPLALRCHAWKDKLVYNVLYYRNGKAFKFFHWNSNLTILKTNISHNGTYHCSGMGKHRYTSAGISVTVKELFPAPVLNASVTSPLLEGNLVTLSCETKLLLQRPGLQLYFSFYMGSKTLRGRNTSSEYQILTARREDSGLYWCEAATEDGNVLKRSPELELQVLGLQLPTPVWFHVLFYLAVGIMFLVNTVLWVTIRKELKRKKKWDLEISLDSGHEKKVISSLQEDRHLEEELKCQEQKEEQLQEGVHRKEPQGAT

Binder | Kd [1] [nM] | koff [1] [s⁻¹] | kon [1] [M⁻¹ s⁻¹] | binding result [2] | binding result (hFcgRIIB) | binding result (hFcgRIIA H131) | binding result (hFcgRIIA R131) | binding result (hFcgRIIIA F176) | binding result [3]
B1 | 7.9 | 0.001 | 130000 |  |  |  |  |  | 
B2 | 16 | 0.00034 | 19000 | binds | no binding (tested: 1 µg/ml) | no binding (tested: 1 µg/ml) | no binding (tested: 1 µg/ml) | binds | binds
